{
  "source": "paper PMC4695337",
  "about": "“Crystal Structure of a Eukaryotic GEN1 Resolving Enzyme Bound to DNA”",
  "key": {"[1]": {"biological_target": "T1, CtGEN1 D143A (Chaetomium thermophilum? (printed C. …, UniProt G0RYN2 1-487, D143A))", "T1 sequence": "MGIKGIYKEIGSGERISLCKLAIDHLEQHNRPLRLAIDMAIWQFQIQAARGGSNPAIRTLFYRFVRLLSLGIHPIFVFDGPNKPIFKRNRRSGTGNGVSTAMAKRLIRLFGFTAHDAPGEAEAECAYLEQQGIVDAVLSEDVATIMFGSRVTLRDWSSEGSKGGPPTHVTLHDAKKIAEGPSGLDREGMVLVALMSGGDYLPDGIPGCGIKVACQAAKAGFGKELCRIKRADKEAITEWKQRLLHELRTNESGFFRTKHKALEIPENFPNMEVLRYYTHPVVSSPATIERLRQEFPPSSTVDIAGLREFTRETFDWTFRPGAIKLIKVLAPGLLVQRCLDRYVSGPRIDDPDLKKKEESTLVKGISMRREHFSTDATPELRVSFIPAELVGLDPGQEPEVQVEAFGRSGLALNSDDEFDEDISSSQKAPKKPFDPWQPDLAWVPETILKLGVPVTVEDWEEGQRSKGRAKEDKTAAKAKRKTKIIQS", "assay": "EMSA; EMSA fitted to Hill equation, protein 2.1-43 nM (monomer); binding buffer and temperature not in material. Crystals: 100 mM HEPES pH 7.5, 2 mM MgCl2, 20% PEG10000, 7 C", "details": "protein: recombinant; tags: C-terminal His6; chain copies: 2; four-way junction of 4 strands (b/h/r/x)"}, "[2]": {"biological_target": "T2, CtGEN1 D141A (Chaetomium thermophilum? (printed C. …, UniProt G0RYN2 1-487, D141A))", "T2 sequence": "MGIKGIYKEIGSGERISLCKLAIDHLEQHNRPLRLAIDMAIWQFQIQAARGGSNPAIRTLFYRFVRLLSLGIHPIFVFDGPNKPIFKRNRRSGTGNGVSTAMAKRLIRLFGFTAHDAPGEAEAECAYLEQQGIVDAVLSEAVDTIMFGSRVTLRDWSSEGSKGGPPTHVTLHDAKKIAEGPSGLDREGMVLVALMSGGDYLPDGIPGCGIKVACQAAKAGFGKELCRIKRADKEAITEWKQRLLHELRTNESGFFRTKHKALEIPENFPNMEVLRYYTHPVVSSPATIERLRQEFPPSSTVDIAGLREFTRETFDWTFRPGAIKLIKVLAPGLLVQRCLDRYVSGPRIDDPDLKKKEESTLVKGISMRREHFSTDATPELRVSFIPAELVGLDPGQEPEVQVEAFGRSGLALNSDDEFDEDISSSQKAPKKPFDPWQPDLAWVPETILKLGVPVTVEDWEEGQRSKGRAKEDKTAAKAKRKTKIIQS", "assay": "EMSA; EMSA fitted to Hill equation, protein 2.1-43 nM (monomer); binding buffer and temperature not in material. Crystals: 100 mM HEPES pH 7.5, 2 mM MgCl2, 20% PEG10000, 7 C", "details": "protein: recombinant; tags: C-terminal His6; chain copies: 2; four-way junction of 4 strands (b/h/r/x)"}, "[3]": {"biological_target": "T3, CtGEN1 E120A (Chaetomium thermophilum? (printed C. …, UniProt G0RYN2 1-487, E120A))", "T3 sequence": "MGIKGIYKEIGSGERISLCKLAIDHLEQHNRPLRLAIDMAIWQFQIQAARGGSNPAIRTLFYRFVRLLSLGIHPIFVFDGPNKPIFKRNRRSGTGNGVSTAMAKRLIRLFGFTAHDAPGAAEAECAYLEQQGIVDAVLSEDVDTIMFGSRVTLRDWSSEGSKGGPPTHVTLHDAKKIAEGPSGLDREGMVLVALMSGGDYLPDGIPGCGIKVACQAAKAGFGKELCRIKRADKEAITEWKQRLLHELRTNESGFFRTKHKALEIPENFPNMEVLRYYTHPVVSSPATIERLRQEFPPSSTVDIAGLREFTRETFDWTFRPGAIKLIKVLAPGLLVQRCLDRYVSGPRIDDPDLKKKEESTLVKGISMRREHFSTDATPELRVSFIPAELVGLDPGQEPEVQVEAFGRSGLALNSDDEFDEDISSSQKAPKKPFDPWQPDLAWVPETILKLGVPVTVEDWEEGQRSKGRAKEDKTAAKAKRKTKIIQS", "assay": "EMSA; EMSA fitted to Hill equation, protein 2.1-43 nM (monomer); binding buffer and temperature not in material. Crystals: 100 mM HEPES pH 7.5, 2 mM MgCl2, 20% PEG10000, 7 C", "details": "protein: recombinant; tags: C-terminal His6; chain copies: 2; four-way junction of 4 strands (b/h/r/x)"}, "[4]": {"biological_target": "T4, CtGEN1 D79A (Chaetomium thermophilum? (printed C. …, UniProt G0RYN2 1-487, D79A))", "T4 sequence": "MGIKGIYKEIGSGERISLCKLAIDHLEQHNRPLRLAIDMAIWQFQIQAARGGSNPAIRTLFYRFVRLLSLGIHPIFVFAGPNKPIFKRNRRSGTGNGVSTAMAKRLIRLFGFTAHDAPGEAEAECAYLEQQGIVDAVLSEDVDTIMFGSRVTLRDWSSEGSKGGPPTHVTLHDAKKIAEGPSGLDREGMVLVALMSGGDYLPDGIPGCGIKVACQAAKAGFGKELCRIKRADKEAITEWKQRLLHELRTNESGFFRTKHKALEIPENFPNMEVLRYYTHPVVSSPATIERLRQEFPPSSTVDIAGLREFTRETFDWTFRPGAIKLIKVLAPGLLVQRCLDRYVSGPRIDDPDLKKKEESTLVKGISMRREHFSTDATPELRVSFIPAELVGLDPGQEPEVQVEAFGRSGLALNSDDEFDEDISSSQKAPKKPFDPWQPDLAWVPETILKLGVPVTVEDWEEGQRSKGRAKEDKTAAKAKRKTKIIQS", "assay": "EMSA; EMSA fitted to Hill equation, protein 2.1-43 nM (monomer); binding buffer and temperature not in material. Crystals: 100 mM HEPES pH 7.5, 2 mM MgCl2, 20% PEG10000, 7 C", "details": "protein: recombinant; tags: C-terminal His6; chain copies: 2; four-way junction of 4 strands (b/h/r/x)"}, "[5]": {"biological_target": "T5, CtGEN1 D38A (Chaetomium thermophilum? (printed C. …, UniProt G0RYN2 1-487, D38A))", "T5 sequence": "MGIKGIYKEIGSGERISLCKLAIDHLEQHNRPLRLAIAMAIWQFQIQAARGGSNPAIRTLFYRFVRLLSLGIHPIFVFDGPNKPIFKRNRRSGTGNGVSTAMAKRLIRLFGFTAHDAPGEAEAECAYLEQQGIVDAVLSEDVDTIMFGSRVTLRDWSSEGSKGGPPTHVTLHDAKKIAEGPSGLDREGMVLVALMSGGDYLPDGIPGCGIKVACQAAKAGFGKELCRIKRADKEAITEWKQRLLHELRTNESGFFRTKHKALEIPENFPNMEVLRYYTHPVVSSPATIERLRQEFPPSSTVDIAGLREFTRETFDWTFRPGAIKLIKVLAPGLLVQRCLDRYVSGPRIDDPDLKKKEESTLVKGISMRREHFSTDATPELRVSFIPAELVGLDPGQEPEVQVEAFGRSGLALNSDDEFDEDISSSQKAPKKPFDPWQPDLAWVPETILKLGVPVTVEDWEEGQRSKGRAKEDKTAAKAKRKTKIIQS", "assay": "EMSA; EMSA fitted to Hill equation, protein 2.1-43 nM (monomer); binding buffer and temperature not in material. Crystals: 100 mM HEPES pH 7.5, 2 mM MgCl2, 20% PEG10000, 7 C", "details": "protein: recombinant; tags: C-terminal His6; chain copies: 2; four-way junction of 4 strands (b/h/r/x)"}, "[6]": {"biological_target": "T6, CtGEN1 (Chaetomium thermophilum? (printed C. …, UniProt G0RYN2 1-487))", "T6 sequence": "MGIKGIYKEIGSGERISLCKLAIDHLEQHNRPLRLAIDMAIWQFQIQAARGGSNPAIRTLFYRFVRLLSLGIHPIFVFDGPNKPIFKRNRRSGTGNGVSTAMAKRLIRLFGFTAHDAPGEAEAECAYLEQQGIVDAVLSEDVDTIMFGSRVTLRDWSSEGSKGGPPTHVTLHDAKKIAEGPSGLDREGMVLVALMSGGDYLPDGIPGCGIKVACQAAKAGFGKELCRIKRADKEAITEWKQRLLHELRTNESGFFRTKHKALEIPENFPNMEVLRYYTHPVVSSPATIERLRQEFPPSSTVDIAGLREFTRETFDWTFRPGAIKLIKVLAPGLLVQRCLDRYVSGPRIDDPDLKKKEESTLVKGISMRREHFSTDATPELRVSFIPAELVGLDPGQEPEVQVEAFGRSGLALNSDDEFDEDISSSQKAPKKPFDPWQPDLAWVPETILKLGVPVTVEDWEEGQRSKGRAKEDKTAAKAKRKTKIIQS", "assay": "EMSA; EMSA fitted to Hill equation, protein 2.1-43 nM (monomer); binding buffer and temperature not in material. Crystals: 100 mM HEPES pH 7.5, 2 mM MgCl2, 20% PEG10000, 7 C", "details": "protein: recombinant; tags: C-terminal His6; four-way junction of 4 strands (b/h/r/x)"}, "[7]": {"biological_target": "T7, CtGEN1 E122A (Chaetomium thermophilum? (printed C. …, UniProt G0RYN2 1-487, E122A))", "T7 sequence": "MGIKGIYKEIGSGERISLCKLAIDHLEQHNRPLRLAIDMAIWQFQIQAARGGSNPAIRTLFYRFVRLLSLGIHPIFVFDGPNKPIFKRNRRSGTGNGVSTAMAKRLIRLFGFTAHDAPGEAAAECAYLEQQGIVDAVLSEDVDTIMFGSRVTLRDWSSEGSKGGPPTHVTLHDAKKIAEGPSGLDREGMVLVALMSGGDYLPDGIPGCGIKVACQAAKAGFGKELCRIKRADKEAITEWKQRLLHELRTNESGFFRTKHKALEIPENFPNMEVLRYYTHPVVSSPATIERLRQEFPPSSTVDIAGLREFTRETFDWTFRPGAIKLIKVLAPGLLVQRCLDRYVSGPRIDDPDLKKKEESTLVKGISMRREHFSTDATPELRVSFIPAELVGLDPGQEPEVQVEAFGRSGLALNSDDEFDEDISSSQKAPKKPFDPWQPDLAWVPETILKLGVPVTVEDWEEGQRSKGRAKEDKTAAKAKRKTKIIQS", "assay": "EMSA; EMSA fitted to Hill equation, protein 2.1-43 nM (monomer); binding buffer and temperature not in material. Crystals: 100 mM HEPES pH 7.5, 2 mM MgCl2, 20% PEG10000, 7 C", "details": "protein: recombinant; tags: C-terminal His6; chain copies: 2; four-way junction of 4 strands (b/h/r/x)"}, "[8]": {"biological_target": "T6, CtGEN1", "assay": "crystal structure; Mg2+ (2 mM MgCl2); EMSA fitted to Hill equation, protein 2.1-43 nM (monomer); binding buffer and temperature not in material. Crystals: 100 mM HEPES pH 7.5, 2 mM MgCl2, 20% PEG10000, 7 C", "details": "protein: recombinant; tags: C-terminal His6; r strand 1-14 paired with h 17-30 (14 bp); r 16-30 paired with x 1-15 (15 bp); mismatch r15/x16"}, "[9]": {"biological_target": "T6, CtGEN1", "assay": "crystal structure; Mn2+ (1 mM MnCl2 soak); EMSA fitted to Hill equation, protein 2.1-43 nM (monomer); binding buffer and temperature not in material. Crystals: 100 mM HEPES pH 7.5, 2 mM MgCl2, 20% PEG10000, 7 C", "details": "protein: recombinant; tags: C-terminal His6; 14 bp with 3' overhang 1 nt on r strand"}},
  "data": [
    {"binder": "four-way junction 3 (50 nt strands) (structured_DNA) DNA 1: GGCTAAGGGATCCGTCCTAGCAAGGGGCTGCTACCGGAGGCTTACATCGG DNA 2: CCGATGTAAGCCTCCGGTAGCAGCCTGAGCGGTGGTTGGATGTTGACTGC DNA 3: GCAGTCAACATCCAACCACCGCTCAACTCAACTGCAGTCTAGATGGACTG DNA 4: CAGTCCATCTAGACTGCAGTTGAGTCCTTGCTAGGACGGATCCCTTAGCC", "values": [
      {"measurement": "Kd", "setting": "[1]", "result": "7.1 ± 0.01", "unit": "nM"},
      {"measurement": "Kd", "setting": "[2]", "result": "10 ± 0.01", "unit": "nM"},
      {"measurement": "Kd", "setting": "[3]", "result": "6.5 ± 0.1", "unit": "nM"},
      {"measurement": "Kd", "setting": "[4]", "result": "5.9 ± 0.05", "unit": "nM"},
      {"measurement": "Kd", "setting": "[5]", "result": "6.2 ± 0.05", "unit": "nM"},
      {"measurement": "Kd", "setting": "[6]", "result": "7.7 ± 0.01", "unit": "nM"},
      {"measurement": "Kd", "setting": "[7]", "result": "4.6 ± 0.04", "unit": "nM"}
    ]},
    {"binder": "junction 3 resolution product (crystal) (structured_DNA, 5'-phosphate at cleaved 5' end of h strand product) DNA 1: TCCAACCACCGCTCAACTCAACTGCAGTCT DNA 2: GAGCGGTGGTTGGA DNA 3: AGACTGCAGTTGAGTC", "values": [
      {"measurement": "binding result", "setting": "[8]", "result": "binds"}
    ]},
    {"binder": "R-stem duplex as modeled in 5CNQ (dsDNA, 5'-phosphate at cleaved 5' end of h strand product) DNA 1: TCCAACCACCGCTCA DNA 2: GAGCGGTGGTTGGA", "values": [
      {"measurement": "binding result", "setting": "[9]", "result": "binds"}
    ]}
  ]
}
